From PMC7599583 (Viruses, 2020)
Values joined by “and” are separate entries in the source; they are usually repeats but may differ in a detail not shown here. Equal values may be shown once.

Tests used:
[1] = biological target: T1, Human adenovirus serotype 7 fiber knob, His-tagged (His-HAd7K), wild type (human adenovirus serotype 7 (HAdV7), …, N-glycosylated (sugars almost 15% of the total mass by mass spectrometry) / Wild-type trimeric knob; N-terminal His tag and GSHM omitted. The printed limits D87-P273 do not fit the paper's own residue); assay: cryo-EM structure; settings: both partners purified
T1 chain: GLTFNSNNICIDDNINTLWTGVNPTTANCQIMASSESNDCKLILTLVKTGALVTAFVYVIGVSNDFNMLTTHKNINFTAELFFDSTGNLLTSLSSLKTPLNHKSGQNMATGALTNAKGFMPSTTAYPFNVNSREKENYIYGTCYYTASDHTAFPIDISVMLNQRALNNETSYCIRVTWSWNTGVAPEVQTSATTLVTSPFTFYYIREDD

[2] = biological target: T2, Human adenovirus serotype 7 fiber knob, His-tagged (His-HAd7K), wild type (human adenovirus serotype 7 (HAdV7), …); assay: cryo-EM structure; settings: both partners purified
T2 chain: T1 chain

[3] = biological target: T3, Human adenovirus serotype 7 fiber knob, His-tagged (His-HAd7K), wild type (human adenovirus serotype 7 (HAdV7), …); assay: BLI
T3 chain: T1 chain

[4] = biological target: T3, Human adenovirus serotype 7 fiber knob, …; assay: BLI

B1: EC2-EC3 domains of desmoglein-2 (EC23 module), glycosylated (domain or fragment, UniProt Q14126 149-386, looked up)
chain: VLDINDNEPVFTQDVFVGSVEELSAAHTLVMKINATDADEPNTLNSKISYRIVSLEPAYPPVFYLNKDTGEIYTTSVTLDREEHSSYTLTVEARDGNGEVTDKPVKQAQVQIRILDVNDNIPVVENKVLEGMVEENQVNVEVTRIKVFDADEIGSDNWLANFTFASGNEGGYFHIETDAQTNEGIVTLIKEVDYEEMKNLDFSVIVANKAAFHKSIRSKYKPTPIPIKVKVKNVKEGI
notes: also called EC2-EC3 module; EC23 module of DSG2
stoichiometry N [1]: 2 EC23 modules per HAd7K trimer and 3 EC23 modules per HAd7K trimer

B2: Human adenovirus serotype 7 fiber knob, His-tagged (His-HAd7K), wild type (domain or fragment)
chain: T1 chain
modifications: Wild-type trimeric knob; N-terminal His tag and GSHM omitted. The printed limits D87-P273 do not fit the paper's own residue numbering (V300 and P302 are present in the knob), so the deposited knob …
stoichiometry N [2]: 3

B3: Desmoglein-2 (DSG2), non His-tagged, Leinco Technologies (receptor)
chain: AWITAPVALREGEDLSKKNPIAKIHSDLAEERGLKITYKYTGKGITEPPFGIFVFNKDTGELNVTSILDREETPFFLLTGYALDARGNNVEKPLELRIKVLDINDNEPVFTQDVFVGSVEELSAAHTLVMKINATDADEPNTLNSKISYRIVSLEPAYPPVFYLNKDTGEIYTTSVTLDREEHSSYTLTVEARDGNGEVTDKPVKQAQVQIRILDVNDNIPVVENKVLEGMVEENQVNVEVTRIKVFDADEIGSDNWLANFTFASGNEGGYFHIETDAQTNEGIVTLIKEVDYEEMKNLDFSVIVANKAAFHKSIRSKYKPTPIPIKVKVKNVKEGIHFKSSVISIYVSESMDRSSKGQIIGNFQAFDEDTGLPAHARYVKLEDRDNWISVDSVTSEIKLAKLPDFESRYVQNGTYTVKIVAISEDYPRKTITGTVLINVEDINDNCPTLIEPVQTICHDAEYVNVTAEDLDGHPNSGPFSFSVIDKPPGMAEKWKIARQESTSVLLQQSEKKLGRSEIQFLISDNQGFSCPEKQVLTLTVCECLHGSGCREAQHDSYVG
modifications: Wild-type trimeric knob; N-terminal His tag and GSHM omitted. The printed limits D87-P273 do not fit the paper's own residue numbering (V300 and P302 are present in the knob), so the deposited knob entity (same as 3EXW) with the last shaft repeat is used. Entity position = fiber number - 112 (D265=153, F269=157, N192=80), an offset inferred by assuming a 325-residue fiber and comparing with HAd3K.
Kd [3]: 4.04 nM | koff [4]: 0.000112 s⁻¹
